The results in this text go back to the DeepSol protein solubility set.

A short description of this data set: soluble on expression in E. coli; label from the status in PepcDB or PDB records.
In the case of “MSTETIEIFNNSDEWANQLKHALSKGENLALLHGLTPDILDRIYAYAFDYHEKGNITDAEIYYKFLCIYAFENHEYLKDFASVCQPKKKYQQAYDLYKLSYNYFPYDDYSVIYRMGQCQIGAKNIDNAMQCFYHIINNCEDDSVKSKAQAYIELLNDNSEDNGLEHHHHHH”, the “soluble on expression in E. coli” value is on record as “not soluble”.

“MSLVSIKDIARYCGVSAMTVSRALNNSDDIAEATKEKILKVCEELKYKPNSAAKSLITKKTNMIGLIIPDIANQYYANISKGVSSYIEKHGYGLILCNSNRKKPNEVKYLDFLSEGRVDGIIILPVKPRKEDYEDISRQIPMVMADNFAKGLEVNFVGIDNYAGAIKIITHMVNQGYKKIGVILGDKDSTASSERLNGYKKVLEDKGISYNEDIVIHSNSTFEDGFNIASILIEKGVDSIFAINDTVAMGVIKYCYEKGIKLPEELGLAGYDNIEQAAMLTIPLTTVDQDNKKIGTIAAKMLVDAIKGNAKKTEKIILEPTLVIRKSCGEEGHHHHHH”: the “soluble on expression in E. coli” value is recorded as “soluble”.

With “MGSDKIHHHHHHMGAARRLPSALFLLGCRTRTRGEHAHMGKIRTGIGGWTFEPWRGTFYPDDLKQKDELKYAASKLTSIEINGTYYSTFKPNSWMKWRDETPDDFVFSVKASRFCTNRRVLSENNDSLEKFLSQGLEELGPKLGPINWQFMATKKFDPADFEGFLKLLPSEQKGVRLRHAMEVRSPTFACQQFYDLCAQYGVAIVYAVDDEAPEWPRIDQPTADFTYARLMCSREDEPTGMTSEELDGVVAQTHKWAERGDVFAYFIAGAKVRNPAAAMALIGKLGG”, the “soluble on expression in E. coli” value was “not soluble”.

For the sequence “MFNCLGMGNRDFIEGASGATWVDLVLEGDSCLTIMANDKPTLDVRMINIEASQLAEVRSYCYHASVTDISTVARCPTTGEAHNEKRADSSYVCKQGFTDRGWGNGCGFFGKGSIDTCAKFSCTSKAIGRTIQPENIKYKVGIFVHGTTTSENHGNYSAQVGASQAAKFTVTPNAPSVTLKLGDYGEVTLDCEPRSGLNTEAFYVMTVGSKSFLVHREWFHDLALPWTSPSSTAWRNRELLMEFEGAHATKQSVVALGSQEGGLHQALAGAIVVEYSSSVMLTSGHLKCRLKMDKLALKGTTYGMCTEKFSFAKNPVDTGHGTVVIELSYSGSDGPCKIPIVSVASLNDMTPVGRLVTVNPFVATSSANSKVLVEMEPPFGDSYIVVGRGDKQINHHWHKAGSTLGKA”, the “soluble on expression in E. coli” value is given as “not soluble”.

For the sequence “MKYYRRALYDKFVHFYLVISDDGSSEAQLRGKMGGLVRKARKKISPDWPKEEQIHQLLQLFYGDWGFHCDPEDYFYARNLYLPYVFEHRQGMPVTLGAMVFYLAEALDLPIYPVNFPTQLILRAEVRDEVAFIDPWDGTYISQEKLQQLYEGAFGFGAKIQPEELDRADLSLLYSRFEQLAKNALIREEHNDMAYHYIKNLMITDAENPYHIRDRGLVLAQMGAYPSALKDLEFFVEHCPKDPTAAFIRTQLLELKGEINKDTFPLHLEHHHHHH”, the “soluble on expression in E. coli” value is recorded as “not soluble”.

“MSLPEHTPSDRLALDAMLGKLATYLRMCGYDTAYALDRDAEADDDLLDIAEREDRLVITRDSDLATRAPESVLLSEREIEDQLRELADAGFRLSLAPEPDYCGVCNSPVEEVDPVEPTPEYAPSAGDERVWRCTDCGQHFWKGSHWASVEATLEDVEGHHHHHH”: the “soluble on expression in E. coli” value is given as “soluble”.

On to “MGSDKIHHHHHHMTSELETAANPEKLKRIVIEPVTRVEGHGKVTLLLDEDNRVQQARFHIVEFRGFEKFIQGRPYTEVPVLVQRLCGICPVSHNLAASKAMDVIVGAAPPPAADKLRRLMHMGQMLQSHALHFFHLSSPDLLFGFDAEVGKRNIAGLAMQFPDIARQGVGLRKFGQEVIRMTSGKRVHGTGVIPGGMSKNLSREDRDWLLAEIDQVVRWSQQAVNLIKRLYGEHKDFYNNFGYYRSSFMSLVREDGAMDLYHGNLRAIDDKGQTIFDHVDYSHYGDYIHEEVKSWSYMKFPFIRSQGREEGWYRVGPLARVNNCDFIPTPLAEAERKIFKEYDGGRASHATLSFHWARMIEMLHSAEAIRELLHDDDLLSDDLVNIGERQLRGVGVIEAPRGTLIHHYRINEDEQIVRANLIVATTHNNQAMNEAIRQVSLQYLDGQQLTEGLLNYIEVAIRAFDPCLSCATHALGKMPLEVELVDAEGARVKRIIKDSDGGYRA”, for which the “soluble on expression in E. coli” value is “not soluble”.

Regarding “MGSDKIHHHHHHMLNVSIVIPAWNEQERINDCLLNATRQTVMPHEVIVVDNRSTDSTVAVVEQFMKDHPEAPVKLLHQDDEQGLIPTRDYGLNHATGDILGRFDADCMIRPDWVEVVSGIFTEDPDAMGATGPVMYYDLPSRHFGLRGDNSTRKRIYRADDGQPLLFGSNMALRATAWREIADEVCQDKADVMHEDIDISLHLLGKDLKTVYCPRMIAGISARRMDTSPASFLNYMRRFKNTFNAHPQHYRKHKPEILITALYPVMHLLYPVWQKVLNTADINPAEAAWINEQMELAEQEGHELYDDTPTDEEWSEKHEE”, the “soluble on expression in E. coli” value is given as “not soluble”.

Regarding “GPGSMLRKVTSPYKVSIRRTAASVTAADSKKAILRLIRFDPETNKQRVESYEYDKHHDYMVLDLITAVKAHQDPTLAFRASCCEGVCGSCAMNINGVNSLACITFSQQVTTVGPLPNFPVIKDFVVDLRHFFRQYAYIRPFVRNVNLDRSRLDNIVERYKTITKVIHGVPSDDEAQLAQLESKSGAQTDVMALLQLLDAVCESGNVTHLIRTLEALQERGMQLDQGKVKALIEETLQNYKKRKLGA”, the “soluble on expression in E. coli” value is reported as “not soluble”.

For “MQVHSGETEILRKAVEDYFCFCYGKALGTTVMVPVPYEKMLRDQSAVVVQGLPEGVAFQHPENYDLATLKWILENKAGISFIINRPFLGPESQLGGPGMVTDAERSIVSPSESCGPINVKTEPMEDSGISLKAEAVSVKKESEDPNYYQYNMQGSHPSSTSNEVIEMELPMEDSTPLVPSEEPNEDPEAEVKIEGNTNSSSVTNSAAGVEDLNIVQVTVPDNEKERLSSIEKIKQLREQVNDLFSRKFGEAIGVDFPVKVPYRKITFNPGCVVIDGMPPGVVFKALGYLEISSMRRILEAAEFIKFTVIRPLPGLELSNVGKRKIDQEGRVFQEKWERAYFFVEVQNIPTCLICKQSMSVSKEYNLRRHYQTNHSKHYDQYTERMRDEKLHELKKGLRKYLLGSSDTECPEQKQVFANPSPTQKSPVQPVEDLAGNLWEKLREKIRSFVAYSIAIDEITDINNTTQLAIFIRGVDENFDVSEELLDTVPMTGTKSGNEIFLRVEKSLKKFCINWSRLVSVASTGTPAMVDANNGLVTKLKSRVATFCKGAELKSICCIIHPESLCAQKLKMDHVMDVVVKSVNWICSRGLNHSEFTTLLYELDSQYGSLLYYTEIKWLSRGLVLKRFFESLEEIDSFMSSRGKPLPQLSSIDWIRDLAFLVDMTMHLNALNISLQGHSQIVTQMYDLIRAFLAKLCLWETHLTRNNLAHFPTLKLVSRNESDGLNYIPKIAELKTEFQKRLSDFKLYESELTLFSSPFSTKIDSVHEELQMEVIDLQCNTVLKTKYDKVGIPEFYKYLWGSYPKYKHHCAKILSMFGSTYICEQLFSIMKLSKTKYCSQLKDSQWDSVLHIAT”, the “soluble on expression in E. coli” value was “soluble”.

On to “ITDNTLIRNDTGDGDAVYDLVLNADGLDEDYSYQLKVMEEQPSDKQANELFTQAKKEIDDSFCEENQSVEQVRGHVIMKDAYASGAVEAEWTLSDYDVVDINGDVNQDAFEEADDEQGKLISASVELSCGEHRQLYDFSFVVFPDELEAGERLIKDINRHIDSEMSKTGTKKLTLPDEVDGVKLSWSQEKSNTAAKIAMLEVVVIVLLVLEKKEKKKTAQKERNIQLQLEYPEIVSKMAVLMGSGMTVEQAWNRITARYLDERKNNDKNIMPAYEEMLVTEREISDGVTGRKAYAGFAERVKLPCYQKLVRIILQSIHKGSKGVCEMLEKESEDAFDERRLLALKLGEEAGTKM”, for which the “soluble on expression in E. coli” value is “not soluble”.

For “MPPVYSQPELSISIAGLRLQRPVGNASGILGWEPREARLVEEGGGGFFVAKSVTYQPRKGYPQPHLYPVAGGIVNAVGLANPGFREASKMLAQTVEEASIPVIASIAGGAPGEWVEMASTLEEAGVSAVELNLSCPHFAGGGLELGQDPAAVASVVSAVASTLRIPVIAKLGYSDRLVDAASKALEAGARGLTLINSMRAMKIDVYAKKPVLGNRVGGLSGKPIHPIAVRAVYEVYGETRADIFAAGGVESWEDAVEFYLAGAKAVQVGAAFITIGPHVLRSIVEGVRRYLWVEGFRSLQDIVGYAHRA”, the “soluble on expression in E. coli” value is listed as “soluble”.

Regarding “MNYVKIGVGGPVGSGKTALIEKLTRILADSYSIGVVTNDIYTKEDAEFLIKNSVLPKERIIGVETGGCPHTAIREDASMNLEAVEELVQRFPDIQIVFIESGGDNLSATFSPELADATIYVIDVAEGDKIPRKGGPGITRSDLLVINKIDLAPYVGASLEVMERDSKKMRGEKPFIFTNLNTNEGVDKIIDWIKKSVLLEGV”, the “soluble on expression in E. coli” value is reported as “soluble”.

For “METCDLLAFGAHPDDVEIGMGGTIAKYVRRGYRIVICDLTQAELSSNGTVDERQREAAEAARRLGVSERFNLGLPDRGLYVEEEAIRQIAAVIRRCRPRLVFAPYWEDRHPDHGRCARLVEEAVFSAGIRRYGAGELGDAHRVRAVYYYMINAFCRPHFLIDISETIDDKLDSLRAYESQFQKRPGSVDTPLTNGYIEMIESRERWFGQQIGAAYAEGFLTKTPIHLSNLFEEER”, the “soluble on expression in E. coli” value was “not soluble”.

As for “MLNHIVMWKIKEDVEDKEKVKLGIKNGLEGLFGKIEELREIRVERFMESTSTHDVALFVKVDNEDTLKKYATNPLHVEIIKNYIKPFVYDRVCIDFFELEHHHHHH”, the “soluble on expression in E. coli” value was “not soluble”.

As for “MEQEQRGMAALLSKFRIDYSDVYVIADIGKKPRQETMNTWQSVIDPFIAQDGSCPIGMTTKSELSAQRDKTYRQLRAGELLNEHSINADLIVMTLPVPRKGMVSSSLYMSWLEVMTRNLPPVLLVRGNQQSVNTSSSSTASSPHHLIIPALAINPHLKVFPSHISLKCFFFFRFLLKAYAAAVHPPSRFLCYMKKVTDSIFVSLMNNSRLYCLL”, the “soluble on expression in E. coli” value was “not soluble”.

On to “MGSDKIHHHHHHMGNILWVASYPKSGNTWVRAFLENYIQNAEQGVDINTMHKISTAESAAHRFQARLQDGRKTTDLSLDEICALRPAVQADIAMQAHGTTFVKTHNYLGTYKEYPLHNSSVTSGSIYIVRNPLDVTVSMANYFGYSIDETIAYMAEEMTGTPNEPENVPQVITSWSMHVSSWTQNPEEAKLVLRYEDILDDPKKVFRKIESFLGLKKDPNRLKNAIKHSSFAQLKAQESKRGFVEKHENAKSFFRQGSKNQWRQVLSDEQVAKIVEHHGEQMARFKYLPGKLR”, for which the “soluble on expression in E. coli” value is “not soluble”.

For the sequence “MTTKKFRMEDVGLSKLKVEKNPKDVKQTEWKSVLPNEVYRVARESGTETPHTGGFNDHFEKGRYVCLCCGSELFNSDAKFWAGCGWPAFSESVGQDANIVRIVDRSHGMHRTEVRCKTCDAHLGHVFNDGPKETTGERYCINSVCMAFEKKD”, the “soluble on expression in E. coli” value is “soluble”.

In the case of “MTDILIDNTATETVRTLIRAFPLVPVSQPPEQGSYLLAEHDTVSLRLVGEKSSVIVDFASGAAQYRRTKGGGELIAKAVNHTAHPTVWDATAGLGRDSFVLASLGLAVTAFEQHPAVACLLSDGIRRALLNPETQNTAAHINLHFGNAAEQMPALVQTQGKPDIVYLDPMYPERRKSAAVKKEMTYFHRLVGEAQDEAALLHTARQTAKKRVVVKRPRLGEHLAGQDPAYQYTGKSTRFDVYLPYGTDKG”, the “soluble on expression in E. coli” value is “not soluble”.

“MGSDKIHHHHHHMKTSLGPIQYCWPKEKVVEFYEAVAQSSVPLVYLGETVCSRRRELKFSDYLALAQMLKAAGKEVVLSTLTLIEAQSEFLELKKQVENGEFTIEANDVGAIYLAKEHGIPFVCGPSINSYNAATLKKFASWGMQRFVMPLELSKAWLTQVLDDLAPRQVEVEVFGHGFMPLAHSARCFTARHKGLTKDKCQTICIENPEGLLVQTQEDQPLLRLNGIQTQSANYMDLCDQQTQMQALGVDYFRISPSSLASIALADKLPAKSASHDRQCNGYWHQLPGLALS”: the “soluble on expression in E. coli” value was “not soluble”.
